T1: HA-tagged ASK1-WT (UniProt Q99683 1-1374)
T1 sequence (looked up): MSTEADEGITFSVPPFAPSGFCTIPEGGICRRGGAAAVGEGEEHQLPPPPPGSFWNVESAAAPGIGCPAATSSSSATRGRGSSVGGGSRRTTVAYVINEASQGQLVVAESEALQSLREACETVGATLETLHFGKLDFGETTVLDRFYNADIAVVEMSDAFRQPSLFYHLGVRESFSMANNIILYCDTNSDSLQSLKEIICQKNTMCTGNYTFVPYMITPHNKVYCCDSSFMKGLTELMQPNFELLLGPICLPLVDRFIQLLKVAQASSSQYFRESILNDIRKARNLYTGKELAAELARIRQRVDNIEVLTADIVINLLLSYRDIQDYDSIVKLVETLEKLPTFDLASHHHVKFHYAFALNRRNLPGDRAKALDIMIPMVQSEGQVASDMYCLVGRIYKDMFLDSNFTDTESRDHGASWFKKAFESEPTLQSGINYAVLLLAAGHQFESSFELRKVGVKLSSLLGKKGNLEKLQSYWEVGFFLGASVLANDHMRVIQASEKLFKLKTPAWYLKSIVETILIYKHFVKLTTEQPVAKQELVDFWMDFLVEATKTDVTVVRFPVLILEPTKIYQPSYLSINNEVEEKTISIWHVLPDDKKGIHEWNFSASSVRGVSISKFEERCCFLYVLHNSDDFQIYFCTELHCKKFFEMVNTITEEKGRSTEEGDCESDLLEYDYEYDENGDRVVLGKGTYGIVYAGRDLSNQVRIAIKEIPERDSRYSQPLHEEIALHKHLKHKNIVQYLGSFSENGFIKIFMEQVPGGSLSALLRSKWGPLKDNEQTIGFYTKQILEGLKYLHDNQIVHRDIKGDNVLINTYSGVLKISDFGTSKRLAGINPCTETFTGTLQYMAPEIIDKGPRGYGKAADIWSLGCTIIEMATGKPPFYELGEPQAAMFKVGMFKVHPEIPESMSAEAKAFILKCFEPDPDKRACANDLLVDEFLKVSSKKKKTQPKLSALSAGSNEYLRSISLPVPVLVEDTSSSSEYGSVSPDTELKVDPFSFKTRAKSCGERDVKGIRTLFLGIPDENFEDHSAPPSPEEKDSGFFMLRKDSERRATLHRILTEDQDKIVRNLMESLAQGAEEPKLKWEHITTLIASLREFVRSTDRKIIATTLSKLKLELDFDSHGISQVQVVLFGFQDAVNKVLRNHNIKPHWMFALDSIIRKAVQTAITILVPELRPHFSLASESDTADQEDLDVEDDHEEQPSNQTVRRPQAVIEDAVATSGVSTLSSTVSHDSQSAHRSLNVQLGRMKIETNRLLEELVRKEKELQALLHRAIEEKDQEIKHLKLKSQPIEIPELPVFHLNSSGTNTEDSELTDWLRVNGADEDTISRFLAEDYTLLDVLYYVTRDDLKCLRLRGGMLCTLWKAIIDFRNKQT


Key:
HA-tagged ASK1-WT [1] = target: T1, HA-tagged ASK1-WT; assay: cell-based or functional assay
HA-tagged ASK1-WT [2] = target: T1, HA-tagged ASK1-WT; assay: co-immunoprecipitation from BAEC (anti-Flag IP, anti-HA blot)
HA-tagged ASK1-WT [3] = target: T1, HA-tagged ASK1-WT; assay: GST pull-down from BAEC lysate, anti-HA Western blot

| inhibition of ASK1-induced caspase 3 activity (HA-tagged ASK1-WT [1]) | binding result (HA-tagged ASK1-WT [2]) | binding result (HA-tagged ASK1-WT [3]) | Binder | cell survival in ASK1-induced EC death (GFP co-transfection killing assay) (HA-tagged ASK1-WT [1]) |
| --- | --- | --- | --- | --- |
| 50% | – | – | Flag-tagged Trx-WT (enzyme, not shown: small tags and cut ends) MVKQIESKTAFQEALDAAGDKLVVVDFSATWCGPCKMIKPFFHSLSEKYSNVIFLEVDVDDCQDVASECEVKCMPTFQFFKKGQKVGEFSGANKEKLEATINELV | 92% |
| – | no binding | – | Flag-tagged Trx-CS (enzyme, Expressed by transfection in BAEC; not shown: Flag tag of the Flag-vector) MVKQIESKTAFQEALDAAGDKLVVVDFSATWSGPSKMIKPFFHSLSEKYSNVIFLEVDVDDCQDVASECEVKCMPTFQFFKKGQKVGEFSGANKEKLEATINELV | – |
| 48% | – | – | Flag-tagged Trx-C32S (enzyme, not shown: small tags and cut ends) MVKQIESKTAFQEALDAAGDKLVVVDFSATWSGPCKMIKPFFHSLSEKYSNVIFLEVDVDDCQDVASECEVKCMPTFQFFKKGQKVGEFSGANKEKLEATINELV | 80% |
| 52% | – | – | Flag-tagged Trx-C35S (enzyme, not shown: small tags and cut ends) MVKQIESKTAFQEALDAAGDKLVVVDFSATWCGPSKMIKPFFHSLSEKYSNVIFLEVDVDDCQDVASECEVKCMPTFQFFKKGQKVGEFSGANKEKLEATINELV | 105% |
| – | – | no binding | GST-Trx-CS (enzyme, not shown: a dimerising Fc or GST; large carriers; small tags and cut ends, also called double-mutant of C32S and C35S) MVKQIESKTAFQEALDAAGDKLVVVDFSATWSGPSKMIKPFFHSLSEKYSNVIFLEVDVDDCQDVASECEVKCMPTFQFFKKGQKVGEFSGANKEKLEATINELV | – |
